The results in this text go back to patent US20190169305A1 (TEIKYO HEISEI UNIVERSITY, published 2019).

The target in assay [1] is T1, human TRAIL-R2:alpaca Fc (hTRAIL-R2:Fc) (human; Lama pacos (alpaca)).
T1 construct: also called hTRAIL-R2:Fc antigen; recombinant human TRAIL-R2:Fc antigen
T1 chain: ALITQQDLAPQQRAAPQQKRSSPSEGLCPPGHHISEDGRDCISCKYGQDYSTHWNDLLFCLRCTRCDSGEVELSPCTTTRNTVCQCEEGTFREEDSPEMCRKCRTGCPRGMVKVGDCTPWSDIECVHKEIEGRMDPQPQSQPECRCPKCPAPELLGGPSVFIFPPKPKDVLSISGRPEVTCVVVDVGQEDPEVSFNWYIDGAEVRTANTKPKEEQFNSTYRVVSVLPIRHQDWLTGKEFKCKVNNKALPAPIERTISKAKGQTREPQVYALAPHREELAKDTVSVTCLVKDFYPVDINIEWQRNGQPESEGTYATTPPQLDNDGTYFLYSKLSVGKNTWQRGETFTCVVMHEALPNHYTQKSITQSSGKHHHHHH
In words: SPR, Biacore X-100, multi-cycle kinetics, 4E6 monomer as analyte (0.919-117.6 nM).

The target in assay [2] is T2, human TRAIL-R1:alpaca Fc (hTRAIL-R1:Fc) (human; Lama pacos (alpaca)).
T2 construct: also called hTRAIL-R1:Fc antigen; recombinant human TRAIL-R1 ECD
T2 chain: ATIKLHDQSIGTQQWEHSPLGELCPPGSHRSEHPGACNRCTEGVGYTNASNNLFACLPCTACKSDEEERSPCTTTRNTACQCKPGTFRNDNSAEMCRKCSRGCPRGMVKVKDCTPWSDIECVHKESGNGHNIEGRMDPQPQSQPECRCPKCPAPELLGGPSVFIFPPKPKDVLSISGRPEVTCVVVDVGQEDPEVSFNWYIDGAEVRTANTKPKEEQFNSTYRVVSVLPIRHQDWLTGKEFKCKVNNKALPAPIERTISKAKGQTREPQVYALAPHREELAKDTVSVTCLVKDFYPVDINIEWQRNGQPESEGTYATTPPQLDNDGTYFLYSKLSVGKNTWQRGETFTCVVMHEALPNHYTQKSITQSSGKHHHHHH
In words: ELISA, antigens coated at 1 µg/ml, VHH monomer at 10 µg/ml, absorbance 450 nm.

Assay [3] has as its target T3, mouse TRAIL-R2:alpaca Fc (mTRAIL-R2:Fc) (mouse; Lama pacos (alpaca), UniProt Q9QZM4 52-177).
T3 construct: range 52-177;range 102-335; also called mTRAIL (mouse TRAIL)-R2:Fc
T3 sequence: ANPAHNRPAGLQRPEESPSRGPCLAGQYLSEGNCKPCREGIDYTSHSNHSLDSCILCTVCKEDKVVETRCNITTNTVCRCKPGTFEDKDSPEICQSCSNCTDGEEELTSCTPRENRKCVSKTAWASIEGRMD
The assay is described as above.

The target of assay [4] is T4, bovine serum albumin (bovine, UniProt P02769 25-607).
T4 construct: also called BSA; BSA negative antigen
The assay can be described thus: ELISA, BSA coated at 1 or 10 µg/ml, 4E6 monomer at 1 µg/ml, detected with anti-Myc 9E10 and anti-mouse IgG HRP, OD450.

T4 sequence (P02769 25-607 limits assumed): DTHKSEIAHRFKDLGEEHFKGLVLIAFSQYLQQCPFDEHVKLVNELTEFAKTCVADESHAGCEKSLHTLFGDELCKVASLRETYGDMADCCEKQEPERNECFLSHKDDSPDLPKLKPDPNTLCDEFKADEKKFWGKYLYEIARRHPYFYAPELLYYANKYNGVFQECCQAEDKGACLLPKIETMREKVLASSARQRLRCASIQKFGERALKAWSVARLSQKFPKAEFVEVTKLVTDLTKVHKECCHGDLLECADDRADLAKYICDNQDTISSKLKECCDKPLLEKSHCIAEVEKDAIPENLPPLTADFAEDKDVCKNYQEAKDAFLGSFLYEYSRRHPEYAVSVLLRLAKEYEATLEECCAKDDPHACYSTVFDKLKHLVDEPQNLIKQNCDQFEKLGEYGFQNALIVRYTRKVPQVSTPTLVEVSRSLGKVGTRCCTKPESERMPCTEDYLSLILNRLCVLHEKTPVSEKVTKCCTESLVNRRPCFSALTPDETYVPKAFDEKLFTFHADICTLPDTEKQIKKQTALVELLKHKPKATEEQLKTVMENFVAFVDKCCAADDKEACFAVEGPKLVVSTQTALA

B1: 4E6 monomer (anti-hTRAIL-R2 VHH antibody/Myc-Tag, expressed in E. coli) (VHH)
VHH: EVQLVESGGGSVQAGDSLRLSCAASGRTFGSIRVGWFRQTPGKEREFVAAINRNDGTTYYADSVKGRFTISRDNAKNTVYMQMASLKPEDTAVYYCAAGLQYNRSADRVPVGAVYWGQGTQVTVSS
notes: also called 4E6 VHH monomer; 4E6 monomeric protein
In the case of B1, the affinity in assay [1], expressed as Kd, was 0.075 nM. For the same molecule, the binding result was “no binding (tested: 10 µg/ml)” in assay [2], “no binding (tested: 10 µg/ml)” in assay [3] and “no binding (tested: 1 µg/ml)” in assay [4].
